# Measured values from patent publication US20170212130A1.
# B1: LaG-8 (VHH)
# VHH: QVQLVESGGGLVQHGGSLRLSCVTSGFTFDIHDMGWFRQAPGKERDIVARISKSGDITYYADSVKGRFIISRDNTKNTVYLQMNSLKPEDTAVYYCAATLRATITSFDEYVYRGQGTQVTVS
# Target: S. cerevisiae Nup84-GFP (S. cerevisiae) (UniProt P52891)
# Test: signal to noise ratio of Coomassie bands, Nup84-GFP affinity isolation on LaG-Dynabeads
binder,measurement,value
B1,Nup84-GFP S:N,0.1
